The supplement of paper PMC9112550, “Optimization of the antimicrobial peptide Bac7 by deep mutational scanning” (BMC Biology, 2022)

Tested on: Escherichia coli TOP10
Experiment: shrunken log2 fold change of peptide-encoding DNA abundance (4.5 h post-induction vs induction); higher = less antimicrobial activity (less host growth inhibition)
Conditions: time post-induction: 4.5 h; library: site-saturation at positions 5, 18, 19, 20
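Note: peptides expressed intracellularly from a pBAD plasmid library in pooled LB shake-flask culture, induced with 0.3% L-arabinose, DNA abundance read by NGS, three biological replicates, DESeq2 with apeglm shrinkage.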

RRIRERPPRLPRPRPRPKHVPRP
shrunken log2 fold change: -0.146

RRIRYRPPRLPRPRPRPYIQPRP
shrunken log2 fold change: -0.294

RRIRQRPPRLPRPRPRPYIGPRP
shrunken log2 fold change: -0.681

RRIRVRPPRLPRPRPRPTKRPRP
shrunken log2 fold change: 0.331

RRIRDRPPRLPRPRPRPDTTPRP
shrunken log2 fold change: 0.345

RRIRSRPPRLPRPRPRPGMAPRP
shrunken log2 fold change: 0.0998

RRIRDRPPRLPRPRPRPTEQPRP
shrunken log2 fold change: -0.0141

RRIRERPPRLPRPRPRPAGWPRP
shrunken log2 fold change: 0.555

RRIRMRPPRLPRPRPRPPGKPRP
shrunken log2 fold change: 0.978

RRIRGRPPRLPRPRPRPRKRPRP
shrunken log2 fold change: 1.21

RRIRRRPPRLPRPRPRPPTKPRP
shrunken log2 fold change: 0.52

RRIRNRPPRLPRPRPRPIGSPRP
shrunken log2 fold change: -0.00277

RRIRVRPPRLPRPRPRPTLWPRP
shrunken log2 fold change: 0.259

RRIRVRPPRLPRPRPRPIELPRP
shrunken log2 fold change: -0.167

RRIRIRPPRLPRPRPRPNFGPRP
shrunken log2 fold change: -0.0272

RRIRHRPPRLPRPRPRPIHLPRP
shrunken log2 fold change: -0.541

RRIRKRPPRLPRPRPRPMINPRP
shrunken log2 fold change: 0.148

RRIRERPPRLPRPRPRPTCLPRP
shrunken log2 fold change: -0.233

RRIRYRPPRLPRPRPRPKHIPRP
shrunken log2 fold change: -0.66

RRIRKRPPRLPRPRPRPHTCPRP
shrunken log2 fold change: 0.00412

RRIRNRPPRLPRPRPRPHTSPRP
shrunken log2 fold change: -0.268

RRIRTRPPRLPRPRPRPTLKPRP
shrunken log2 fold change: 0.00476

RRIRMRPPRLPRPRPRPSLMPRP
shrunken log2 fold change: 0.428

RRIRPRPPRLPRPRPRPKRWPRP
shrunken log2 fold change: 0.441

RRIRWRPPRLPRPRPRPIYDPRP
shrunken log2 fold change: -0.227

RRIRWRPPRLPRPRPRPRCEPRP
shrunken log2 fold change: 0.545

RRIRKRPPRLPRPRPRPCSDPRP
shrunken log2 fold change: -0.0361

RRIRRRPPRLPRPRPRPMMDPRP
shrunken log2 fold change: -0.00156

RRIRWRPPRLPRPRPRPLCQPRP
shrunken log2 fold change: 0.0938

RRIRHRPPRLPRPRPRPQFKPRP
shrunken log2 fold change: -0.024

RRIRHRPPRLPRPRPRPSYLPRP
shrunken log2 fold change: -0.683

RRIRGRPPRLPRPRPRPMFTPRP
shrunken log2 fold change: 0.522

RRIRQRPPRLPRPRPRPMQWPRP
shrunken log2 fold change: 0.0039

RRIRARPPRLPRPRPRPVNSPRP
shrunken log2 fold change: -0.0786

RRIRMRPPRLPRPRPRPQVYPRP
shrunken log2 fold change: 0.0985

RRIRWRPPRLPRPRPRPKCKPRP
shrunken log2 fold change: 0.0552

RRIRIRPPRLPRPRPRPCNQPRP
shrunken log2 fold change: -0.297

RRIRMRPPRLPRPRPRPGPLPRP
shrunken log2 fold change: 0.532

RRIRRRPPRLPRPRPRPTCSPRP
shrunken log2 fold change: 0.0172

RRIRVRPPRLPRPRPRPSSCPRP
shrunken log2 fold change: -0.184

RRIRERPPRLPRPRPRPDIFPRP
shrunken log2 fold change: 0.0405

RRIRFRPPRLPRPRPRPRRGPRP
shrunken log2 fold change: 0.435

RRIRVRPPRLPRPRPRPYCSPRP
shrunken log2 fold change: -0.0744

RRIRHRPPRLPRPRPRPAAGPRP
shrunken log2 fold change: 0.323

RRIRIRPPRLPRPRPRPDAWPRP
shrunken log2 fold change: 0.32

RRIRLRPPRLPRPRPRPWEKPRP
shrunken log2 fold change: 0.0916

RRIRQRPPRLPRPRPRPESLPRP
shrunken log2 fold change: -0.00178

RRIRPRPPRLPRPRPRPKLDPRP
shrunken log2 fold change: 0.0519

RRIRHRPPRLPRPRPRPGWHPRP
shrunken log2 fold change: 0.208

RRIRTRPPRLPRPRPRPSRHPRP
shrunken log2 fold change: -0.481

RRIRVRPPRLPRPRPRPTYEPRP
shrunken log2 fold change: -0.152

RRIRHRPPRLPRPRPRPNPNPRP
shrunken log2 fold change: -0.202

RRIRERPPRLPRPRPRPVHFPRP
shrunken log2 fold change: 0.0364

RRIRMRPPRLPRPRPRPQCYPRP
shrunken log2 fold change: -0.0225

RRIRLRPPRLPRPRPRPGPGPRP
shrunken log2 fold change: 0.279

RRIRQRPPRLPRPRPRPQNEPRP
shrunken log2 fold change: 0.121

RRIRMRPPRLPRPRPRPKCCPRP
shrunken log2 fold change: 0.26

RRIRVRPPRLPRPRPRPPYHPRP
shrunken log2 fold change: -0.284

RRIRNRPPRLPRPRPRPLPCPRP
shrunken log2 fold change: -0.207

RRIRKRPPRLPRPRPRPRNQPRP
shrunken log2 fold change: 0.493
